From patent US20090074766A1, “Methods of inhibiting HIV-2 infection” (priority 2007, published 2009)
Where “and” joins values, the source holds several entries; their conditions need not be identical. Identical values can stand only once.

Legend:
CCR5 = molecular target: T1, CCR5 (Homo sapiens, UniProt P51681); experiment: Competition binding: inhibition of 3H-UK-427,857 binding to CEM.NKR-CCR5 cells; conditions: read-out: EC50 for inhibition of 3H-UK-427,857 binding; 2 nM 3H-UK-427,857, pre-incubation with unlabeled compound
T1 construct: host or cells: CEM.NKR-CCR5 (transduced human T cell leukemia line)
Description: Cells were washed and then analyzed for radioactivity by scintillation counting.
The cells were washed in PBSA and lysed with 0.5N HCl prior to scintillation counting using a Wallac1410 instrument.

R5 HIV-1 CC 1/85 = experiment: Inhibition of replication in PBMC cultures, RT activity readout: HIV-1 CC 1/85; format: cell-based
Experimental: (§1) Viruses: All virus isolates were grown and titered exclusively in stimulated PBMC as described previously. […] The HIV-2 isolates used in this study have been previously described (Owen, S. M., Ellenberger, D., Rayfield, M., Wiktor, S., Michel, P., Grieco, M. H., Gao, F., Hahn, B. H., and Lai, R. B. 1998. Genetically Divergent Strains of Human Immunodeficiency Virus Type 2 Use Multiple Coreceptors for Entry. J Virol 72:5425-5432) and were obtained from the NIH AIDS Research and Reference Reagent Program.
(§2) PA14 (Lot # DF-021204) was produced for reagent use in the Research & Development laboratories of Progenics Pharmaceuticals Inc.
(§3) Inhibition of HIV-1 and HIV-2 replication in PBMC cultures: PBMC were isolated from 34 healthy blood donors with Ficoll-Hypaque (all media from Cellgro, Herndon, Va.) and depleted of CD8+ cells using RosetteSep CD8 depletion cocktail (StemCell Technologies) according to the manufacturer's instructions. Equal numbers of cells from each donor were then separately stimulated with 5 ug phytohemagglutinin/ml (Sigma, St. Louis, Mo.) or with surface-immobilized anti-CD3 antibody OKT3 in RPMI 1640 medium containing 10% fetal calf serum, 100 Units of interleukin-2/ml (NIH AIDS Research and Reference Reagent Program), glutamine, and antibiotics (PBMC culture medium) as previously described. After 72 hours, equal numbers of PBMC stimulated by one of these two methods from each donor were combined for use in infection assays as follows. […] The virus inoculum was adjusted to 400 to 2,000 times the TCID50 per ml in PBMC culture medium, and a 50-ul aliquot was added to each culture. The inhibitory doses refer to the concentrations of the agents present at this point in the culture, when virus, cells, and inhibitors were all present at their final concentrations. Reverse Transcriptase (RT) activity was measured on Day 7 post infection (pi) for HIV-1 and Day 10 pi for HIV-2 by the Reverse Transcriptase Assay, Colorimetric kit, #11 468 120 910, Roche (Switzerland) according to the manufacturer's instructions with the following exception: neither ultracentrifugation nor PEG precipitation of the culture supernatants was performed before viral lysis.
(§4) The inhibition data were analyzed using GraphPad Prism software (GraphPad Software, San Diego, Calif.). A 4-parameter logistic fit was used calculate the concentration of inhibitor that afforded a 50% and a 90% reduction in RT activity. […] The % inhibitions where best-fit curve reached a top plateau, also as calculated by GraphPad Prism software, are reported as well as maximum percent inhibition (MPI). […] Inhibition curves with a poor sigmoid fit (R^2<0.7) were excluded from data analysis.

R5 HIV-1 JR-FL = experiment: Inhibition of replication in PBMC cultures, RT activity readout: HIV-1 JR-FL; format: cell-based
Experimental: as §1, §2, §3, §4

R5 HIV-2 A2267 = experiment: Inhibition of replication in PBMC cultures, RT activity readout: HIV-2 A2267; format: cell-based
Experimental: as §1, §2, §3, §4

R5 HIV-2 A2270 = experiment: Inhibition of replication in PBMC cultures, RT activity readout: HIV-2 A2270; format: cell-based
Experimental: as §1, §2, §3, §4

R5 HIV-2 310072 = experiment: Inhibition of replication in PBMC cultures, RT activity readout: HIV-2 310072; format: cell-based
Experimental: as §1, §2, §3, §4

R5X4 HIV-2 77618 = experiment: Inhibition of replication in PBMC cultures, RT activity readout: HIV-2 77618; format: cell-based
Experimental: as §1, §2, §3, §4

[1] = CC 1/85, current study n = 5, mean
[2] = HIV-1 JR-FL, R5, median, current study n = 5
[3] = JR-FL, current study n = 5, mean

T1 sequence (P51681 whole entry): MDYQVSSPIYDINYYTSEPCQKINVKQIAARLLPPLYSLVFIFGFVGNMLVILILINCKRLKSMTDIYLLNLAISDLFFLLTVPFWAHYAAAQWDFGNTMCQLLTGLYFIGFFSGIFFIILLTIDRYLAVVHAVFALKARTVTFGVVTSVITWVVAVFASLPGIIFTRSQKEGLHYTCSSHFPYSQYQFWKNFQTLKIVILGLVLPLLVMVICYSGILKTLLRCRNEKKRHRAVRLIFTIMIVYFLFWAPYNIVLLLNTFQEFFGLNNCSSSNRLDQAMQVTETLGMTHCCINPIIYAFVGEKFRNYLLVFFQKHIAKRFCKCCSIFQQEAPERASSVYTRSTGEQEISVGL

B1: PRO 140: humanized IgG4,κ anti-CCR5 monoclonal antibody, humanized version of murine mAb PA14 (antibody, chains of the INN, looked up, V domains shown)
VH: EVQLVESGGGLVKPGGSLRLSCAASGYTFSNYWIGWVRQAPGKGLEWIGDIYPGGNYIRNNEKFKDKTTLSADTSKNTAYLQMNSLKTEDTAVYYCGSSFGSNYVFAWFTYWGQGTLVTVSS
VL: DIVMTQSPLSLPVTPGEPASISCRSSQRLLSSYGHTYLHWYLQKPGQSPQLLIYEVSNRFSGVPDRFSGSGSGTDFTLKISRVEAEDVGVYYCSQSTHVPLTFGQGTKVEIK
- EC50 (CCR5): 14 nM
- EC50 (mean) (R5 HIV-1 CC 1/85; [1]): <7.7 µg/mL
- EC90 (mean) (R5 HIV-1 CC 1/85; [1]): 23 µg/mL
- EC90 (median) (R5 HIV-1 CC 1/85; HIV-1 CC 1/85, R5, median, current study n = 5): 6.0 µg/mL
- MPI (maximum percent inhibition) (R5 HIV-1 CC 1/85; R5 HIV-1 CC 1/85, individual assays (Source)): 94% and 93% and 102% and 95%
- MPI, Median (R5 HIV-1 CC 1/85; R5 HIV-1 CC 1/85, median of assays): 95%
- EC50 (median) (R5 HIV-1 JR-FL; [2]): 0.09 µg/mL
- EC90 (median) (R5 HIV-1 JR-FL; [2]): 7.0 µg/mL
- EC50 (mean) (R5 HIV-1 JR-FL; [3]): <0.97 µg/mL
- EC90 (mean) (R5 HIV-1 JR-FL; [3]): 22 µg/mL
- MPI (maximum percent inhibition) (R5 HIV-1 JR-FL; R5 HIV-1 JR-FL, individual assays (Source)): 100% and 103% and 101% and 110%
- MPI, Median (R5 HIV-1 JR-FL; R5 HIV-1 JR-FL, median of assays with R^2 >= 0.7): 102%
- EC50 (median) (R5 HIV-2 A2267; HIV-2 A2267, R5): 0.10 µg/mL
- EC90 (median) (R5 HIV-2 A2267; HIV-2 A2267, R5): 98 µg/mL
- MPI (maximum percent inhibition) (R5 HIV-2 A2267; R5 HIV-2 A2267, individual assays (Source)): 97% and 115% and 88% and 94% and 75%
- MPI, Median (R5 HIV-2 A2267; R5 HIV-2 A2267, median of assays with R^2 >= 0.7): 94%
- EC50 (median) (R5 HIV-2 A2270; HIV-2 A2270, R5): 0.12 µg/mL
- EC90 (median) (R5 HIV-2 A2270; HIV-2 A2270, R5): 3.5 µg/mL
- MPI (maximum percent inhibition) (R5 HIV-2 A2270; R5 HIV-2 A2270, individual assays (Source)): 103% and 101% and 97%
- MPI, Median (R5 HIV-2 A2270; R5 HIV-2 A2270, median of assays): 101%
- EC50 (median) (R5 HIV-2 310072; HIV-2 310072, R5): 0.08 µg/mL
- EC90 (median) (R5 HIV-2 310072; HIV-2 310072, R5): 1.4 µg/mL
- MPI (maximum percent inhibition) (R5 HIV-2 310072; R5 HIV-2 310072, individual assays (Source)): 92% and 96% and 97%
- MPI, Median (R5 HIV-2 310072; R5 HIV-2 310072, median of assays with R^2 >= 0.7): 96%
- EC50 (median) (R5X4 HIV-2 77618; HIV-2 77618, R5X4): >100 µg/mL
- EC90 (median) (R5X4 HIV-2 77618; HIV-2 77618, R5X4): >100 µg/mL
- MPI: Maximum percent inhibition as determined from the plateau of the sigmoidal curve fit (R5X4 HIV-2 77618; Virus: R5X4 HIV-2 77618, individual experiments (Source)): 6% and −2%
- MPI, Median (R5X4 HIV-2 77618; Virus: R5X4 HIV-2 77618, median of experiments): 2%
